Experimental data reported in PMC11251518, “A novel reporter for helicase activity in translation uncovers DDX3X interactions” (RNA, 2024).

Molecular target: T1, Saccharomyces cerevisiae eIF4E (S. cerevisiae, UniProt P07260 1-213, ^15N labeled)
T1 construct: eIF4E of Saccharomyces cerevisiae; source: E. coli BL21-star, purified (nickel resin, TEV cleavage, m^7G cap resin)
T1 sequence (looked up): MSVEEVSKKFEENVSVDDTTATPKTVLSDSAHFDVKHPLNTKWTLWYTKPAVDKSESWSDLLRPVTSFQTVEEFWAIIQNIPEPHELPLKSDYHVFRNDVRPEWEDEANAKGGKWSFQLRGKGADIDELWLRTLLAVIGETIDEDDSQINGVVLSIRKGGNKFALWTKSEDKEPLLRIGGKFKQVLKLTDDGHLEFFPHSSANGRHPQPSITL
Assay: NMR titration; ^15N HSQC of 200 μM ^15N S. cerevisiae eIF4E with 250 μM m^7GTP; peptide added to 1 mM; 50 mM phosphate pH 6.5, 50 mM KCl, 298 K, 900 MHz
Conditions: both partners purified

binding result: binds
B1: 4E-BP1 peptide (amino acids 51–67) (peptide)
peptide: RIIYDRKFLMECRNSPV
notes: human 4E-BP1, amino acids 51–67; also called human 4E-BP1 amino acids 51–67; source: synthetic peptide (Elim Bio)
